# Experimental data from patent publication US20250270295A1 (ALBERT LUDWIGS UNIVERSITAET FREIBURG, published 2025).
# T1: soluble gp34 ectodomain W65F, V5-His tagged (sgp34mtrp-V5-His) (HCMV strain AD169)
# T1 construct: signal peptide 1-23 left out; V5 and His tags are in the entry; Forms only monomers and dimers; also called sol gp34mtrp; gp34 1-179 W65F
# T1 chain: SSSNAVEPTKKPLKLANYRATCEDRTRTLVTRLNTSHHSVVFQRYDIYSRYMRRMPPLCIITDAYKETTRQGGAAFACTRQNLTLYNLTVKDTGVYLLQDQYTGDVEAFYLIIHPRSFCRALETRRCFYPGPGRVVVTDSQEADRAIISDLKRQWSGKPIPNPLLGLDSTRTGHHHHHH
# T2: soluble gp34 wild type ectodomain, V5-His tagged (sgp34wt-V5-His) (HCMV strain AD169)
# T2 construct: Entry holds signal peptide 1-23 (left out), ectodomain, V5 tag and His tag; Forms monomers, dimers and higher oligomers; also called sol gp34 wt; gp34 1-179
# T2 chain: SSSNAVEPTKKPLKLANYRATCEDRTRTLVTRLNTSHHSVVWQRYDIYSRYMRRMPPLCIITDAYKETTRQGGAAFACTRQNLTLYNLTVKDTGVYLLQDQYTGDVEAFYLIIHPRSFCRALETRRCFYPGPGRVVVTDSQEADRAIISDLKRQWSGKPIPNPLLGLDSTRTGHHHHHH
# T3: soluble human ICOSL ectodomain, V5-His tagged (sICOSL-V5His) (human, UniProt O75144 19-256)
# T3 construct: extracellular domain; Control protein with the same tags as the vFcγRs
# T3 sequence: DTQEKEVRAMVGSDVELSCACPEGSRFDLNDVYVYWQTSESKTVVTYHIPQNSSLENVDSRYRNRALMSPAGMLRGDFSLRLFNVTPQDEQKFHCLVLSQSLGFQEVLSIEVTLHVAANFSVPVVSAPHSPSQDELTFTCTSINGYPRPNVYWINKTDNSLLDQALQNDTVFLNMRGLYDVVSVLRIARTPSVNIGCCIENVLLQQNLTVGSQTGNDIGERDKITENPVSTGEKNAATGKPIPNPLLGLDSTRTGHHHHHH
# T4: gp34mtrp (W65F) on stably transduced HeLa cells (HCMV strain AD169, UniProt P16809 24-234)
# T4 construct: whole, on cells; also called plasma membrane exposed gp34mtrp
# T4 sequence: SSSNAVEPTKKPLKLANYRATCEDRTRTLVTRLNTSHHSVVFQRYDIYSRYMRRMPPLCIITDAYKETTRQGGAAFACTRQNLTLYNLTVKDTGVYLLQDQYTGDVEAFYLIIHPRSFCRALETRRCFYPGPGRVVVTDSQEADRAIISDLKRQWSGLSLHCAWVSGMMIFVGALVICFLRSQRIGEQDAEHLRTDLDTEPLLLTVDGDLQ
# T5: gp34wt on stably transduced HeLa cells (HCMV strain AD169, UniProt P16809 24-234)
# T5 construct: whole, on cells; also called plasma membrane exposed gp34wt
# T5 sequence: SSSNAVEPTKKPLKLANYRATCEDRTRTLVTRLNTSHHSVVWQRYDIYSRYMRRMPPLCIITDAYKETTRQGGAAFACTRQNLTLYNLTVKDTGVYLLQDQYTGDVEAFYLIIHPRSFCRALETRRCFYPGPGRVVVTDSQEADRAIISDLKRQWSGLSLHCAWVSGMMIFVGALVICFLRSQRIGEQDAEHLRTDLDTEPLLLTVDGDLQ
# Key:
# [1] = target: T1, soluble gp34 ectodomain W65F, V5-His …; experiment: ELISA mtrp
# [2] = target: T2, soluble gp34 wild type ectodomain, …; experiment: sgp34wt pre-incubated with mAb, ELISA on FcRn
# Protocol: Furthermore, the gp34wt and FcRn interaction was investigated whereby various anti-gp34 mAbs were analyzed and their potential to block this interaction was identified. Experiments were performed as described before for IgG-blocking ELISA, but this time using immobilized FcRn as a novel gp34-ligand.
# In addition, binding of sgp34wt to immobilized FcRn in absence of any mAb is depicted.
# [3] = target: T2, soluble gp34 wild type ectodomain, …; experiment: blocking of sgp34wt binding to immobilized human IgG, ELISA
# Protocol: FIG. 44: IgG blocking ability by anti-gp34mtrp mAbs. vFcγR gp34 is an HCMV encoded IgG-Fc-binding. Anti-gp34mtrp-specific mAbs (in titration) were pre-incubated with recombinant, sgp34wt (constant amount 1 μg/ml) and added to IgG-immobilized ELISA plates. […] Dose-dependent potential of mAbs used for blocking is indicated. Effect by non-specific mouse IgG isotype IgG1 is shown. In addition, binding of sgp34wt to immobilized IgG in absence of any mAb is depicted.
# To test if anti-gp34wt specific mAbs can interfere with IgG-binding ability of gp34 and human IgG. Therefore, recombinant, sgp34wt was pre-incubated with indicated anti-gp34wt specific mAbs, mouse IgG isotype or PBS only. Next, antibody bound sgp34wt was incubated on IgG-immobilized ELISA plates.
# Anti-gp34wt-specific mAbs (in titration) were pre-incubated with recombinant, sgp34wt (constant amount 1 μg/ml) and added to IgG-immobilized ELISA plates. […] Dose-dependent potential of mAbs used for blocking is indicated. […] In addition, binding of sgp34wt to immobilized IgG in absence of any mAb is depicted.
# [4] = target: T2, soluble gp34 wild type ectodomain, …; experiment: sgp34wt pre-incubated with mAb, ELISA on CRP
# Description: In addition, binding of sgp34wt to immobilized CRP in absence of any mAb is depicted.
# [5] = target: T3, soluble human ICOSL ectodomain, V5-His …; experiment: western blot
# [6] = target: T4, gp34mtrp (W65F) on stably transduced …; experiment: flow cytometry, HeLa
# [7] = target: T5, gp34wt on stably transduced HeLa cells; experiment: flow cytometry, HeLa, 1 µg/ml
Binder,binding result [1],percent blocking of gp34 FcRn-binding [2],IC50 [3],percent blocking of gp34-CRP-binding [4],binding result [5],binding result [6],binding result [7]
"gp34mtrp.03 (antibody, V domains shown, mouse IgG1 hybridoma mAb; leader in entries; also called anti gp34 clone mtrp.03) VH: EVQLEESGTVLARPGASVKMSCKASGYTFTSYWMHWVKQRPGQGLEWIGAIYPGNSDTGYNQKFKGKARLTAVTSTSTAYLELSSLTDEDSAVYFCTRLGYGDYWGQGTTLTVSS VL: DIVLTQTPSSMYASLGERVTITCKASQDINSYLTWFQQKPGKSPKTLIYRANRLVDGVPSRFSGSGSGQDYSLTINSLDYEDMGIYYCLQYDEFPPTFGGGTKLEIK",binds,≤ 50%,0.152 µg/mL,~50%,–,–,–
"gp34mtrp.04 (antibody, V domains shown, mouse IgG1 hybridoma mAb; leader in entries; also called anti gp34 clone mtrp.04) VH: EVKLVQSGTVLARPGASVKMSCKASGYTFTSYWMHWVKQRPGQGLEWIGAIYPGNSDTGYNQKFKGKARLTAVTSTSTAYLELSSLTDEDSAVYFCTRLGYGDYWGQGTTLTVSS VL: DIVMTQTPSSMYASLGERVTITCKASQDINSYLTWFQQKPGKSPKTLIYRANRLVDGVPSRFSGSGSGQDYSLTINSLDYEDMGIYYCLQYDEFPPTFGGGTKLEIK",binds,≤ 50%,0.147 µg/mL,~50%,–,–,–
"gp34mtrp.05 (antibody, V domains shown, mouse IgG1 hybridoma mAb; leader in entries; also called anti gp34 clone mtrp.05) VH: EVKLLQSGPEVKKPGETVKISCKASGYTFTNYGMSWLRQAPGKGLKWMGWINTYTGEPTYADDFKGRFAFSLETSASTAYFQINNLKDEDTTTYFCARRAFGGLDYWGQGTSVTVSS VL: DIVMTQSPLSLPVSLGDQASISCRSSQSIVYTNGNTYLEWYLQKPGQSPKLLIYKVSNRFSGVPDRFSGSGSGTDFTLKISRVEAEDLGVYYCFQGSHVPWTFGGGTKLEIK",binds,≤ 50%,5.34 µg/mL,~50%,–,–,–
"gp34mtrp.06 (antibody, V domains shown, mouse IgG1 hybridoma mAb; leader in entries; also called anti gp34 clone mtrp.06) VH: EVQLLQSGPEVKKPGETVKISCKASGYTFTNYGMSWLRQAPGKGLKWMGWINTYTGEPTYADDFKGRFAFSLETSASTAYFQINNLKNEDTTTYFCARRAFGGLDYWGQGTSVTVSS VL: DIVLTQSPLSLPVSLGDQASISCRSSQSIVYTNGNTYLEWYLQKPGQSPKLLIYKVSNRFSGVPDRFSGSGSGTDFTLKISRVEAEDLGVYYCFQGSHVPWTFGGGTKLEIK",binds,≤ 50%,4.46 µg/mL,~50%,–,–,–
"gp34wt.07 (antibody, V domains shown, mouse IgG1 hybridoma mAb; leader in entries; also called anti gp34 clone wt.07) VH: QVKLEESGPELVKTGASVKISCKASGYSFTSYQIYWVKQSHGKSLEWIGHISCYNGATSYNQKFKDKATFTVDTSSSTAYMQFNSLTSEDSAVYFCARYDYAPDYYAMDYWGQGTSVTVSS VL: DIVLTQTPASLAVSLGQRATISCRASESVDSYGNSFMHWYQQKPGQPPKLLIYLASNLESGVPARFSGSGSRTDFTLTIDPVEAEDAAIYYCQQNNEDPLTFGGGTKLELK",no binding,–,0.447 µg/mL,–,no binding,no binding (tested: 1 µg/ml),–
"gp34wt.08 (antibody, V domains shown, mouse IgG1 hybridoma mAb; leader in entries; also called anti gp34 clone wt.08) VH: EVQLEQSGPELVKTGASVKISCKASGYSFTSYQIYWVKQSHGKSLEWIGHISCYNGATSYNQKFKDKATFTVDTSSSTAYMQFNSLTSEDSAVYFCARYDYAPDYYAMDYWGQGTSVTVSS VL: DIVMTQTPASLAVSLGQRATISCRASESVDSYGNSFMHWYQQKPGQPPKLLIYLASNLESGVPARFSGSGSRTDFTLTIDPVEAEDAAIYYCQQNNEDPLTFGGGTKLELK",no binding,–,0.494 µg/mL,–,no binding,no binding (tested: 1 µg/ml),–
"gp34wt.09 (antibody, V domains shown, mouse IgG1 hybridoma mAb; leader in entries; also called anti gp34 clone wt.09) VH: EVQLEQSGPELVKPGASVKMSCKASGYTFTRPYIHWVKQRPGQGLEWIGWIYPGDGITKYNEKFKGKITLTADKSSSAAYMLLSSLTSEDSAIYFCASFTTPVYWGQGTSVTVSS VL: not shown",no binding,–,0.063 µg/mL,–,no binding,no binding (tested: 1 µg/ml),binds
"gp34wt.10 (antibody, V domains shown, mouse IgG1 hybridoma mAb; leader in entries; also called anti gp34 clone wt.10) VH: EVKLEQSGPELVKPGASVKMSCKASGYTFTRPYIHWVKQRPGQGLEWIGWIYPGDGITKYNEKFKGKITLTADKSSSAAYMLLSSLTSEDSAIYFCASFTTPVYWGQGTSVTVSS VL: not shown",no binding,–,0.089 µg/mL,–,no binding,no binding (tested: 1 µg/ml),binds
"gp34wt.11 (antibody, V domains shown, mouse IgG1 hybridoma mAb; leader in entries; also called anti gp34 clone wt.11) VH: QVQLEESGPELVKPGASVKMSCKASGYTVTRSYIHWVKQRPGQGLEWIGWIYPGDGSTKYNEKFKGKTTLTVDKSSSTAYMLLSSLTSEDSAIYFCASFTTPVYWGQGTSVTVSS VL: not shown",no binding,–,0.077 µg/mL,–,no binding,no binding (tested: 1 µg/ml),binds
"gp34wt.12 (antibody, V domains shown, mouse IgG1 hybridoma mAb; leader in entries; also called anti gp34 clone wt.12) VH: EVKLQESGPELVKPGASVKMSCKASGYTVTRSYIHWVKQRPGQGLEWIGWIYPGDGSTKYNEKFKGKTTLTVDKSSSTAYMLLSSLTSEDSAIYFCASFTTPVYWGQGTSVTVSS VL: not shown",no binding,–,0.07 µg/mL,–,no binding,no binding (tested: 1 µg/ml),binds
"gp34wt.15 (antibody, V domains shown, mouse IgG1 hybridoma mAb; leader in entries; also called anti gp34 clone wt.15) VH: QVKLQQSGPELVKPGASVKMSCKASGYTFRSYYIHWVKQRPGQGLEWIGWNNPGDGTAKYNEKFKGKTTLTADKSSSTAYMLLSSLTSEDSAIYFCASFNTPDYWGQGTSVTVSS VL: not shown",–,–,0.12 µg/mL,–,no binding,no binding (tested: 1 µg/ml),binds
"gp34wt.13 (antibody, V domains shown, mouse IgG2a hybridoma mAb; leader in entries; also called anti gp34 clone wt.13) VH: EVQLVESGPELKKPGETVKISCKASGYAFTNYGMNWVKQTPGKGLKWMGWINTYTGKPTYADDFKGRFAFSLETSASSAYLQINNLKNEDTATYFCARRRGNSFDYWGQGTTLTVSS VL: DIVLTQSPSSLTVTAGEKVTMSCKSSQSLLNSGNQENCLTWYQQKPGQPPRLLIYWASTRESGVPDRFTGSGSGTDFTLTISSVQAEDLAVYYCQNDYTYPLTFGAGTKLELK",–,–,–,–,no binding,–,–
"gp34wt.14 (antibody, V domains shown, mouse IgG2a hybridoma mAb; leader in entries; also called anti gp34 clone wt.14) VH: QVKLLQSGPELKKPGETVKISCKASGYAFTNYGMNWVKQTPGKGLKWMGWINTYTGKPTYADDFKGRFAFSLETSASSAYLQINNLKNEDTATYFCARRRGNSFDYWGQGTTLTVSS VL: DIVITQSPSSLTVTAGEKVTMSCKSSQSLLNSGNQENCLTWYQQKPGQPPRLLIYWASTRESGVPDRFTGSGSGTDFTLTISSVQAEDLAVYYCQNDYTYPLTFGAGTKLELK",–,–,–,–,no binding,–,–
